Laboratory results: patent US20250297232A1, “BACTERIAL MYELOPEROXIDASE-CATALASE AND APPLICATIONS THEREOF” (priority 2022, published 2025)
“Also recorded” adds a separate entry of the source.

B1: GOxaspniger: glucose oxidase isolated from Aspergillus niger (e.g. CAS number: 9001-37-0) (protein, UniProt P13006 17-605, looked up)
Glucose oxidase: LPHYIRSNGIEASLLTDPKDVSGRTVDYIIAGGGLTGLTTAARLTENPNISVLVIESGSYESDRGPIIEDLNAYGDIFGSSVDHAYETVELATNNQTALIRSGNGLGGSTLVNGGTWTRPHKAQVDSWETVFGNEGWNWDNVAAYSLQAERARAPNAKQIAAGHYFNASCHGVNGTVHAGPRDTGDDYSPIVKALMSAVEDRGVPTKKDFGCGDPHGVSMFPNTLHEDQVRSDAAREWLLPNYQRPNLQVLTGQYVGKVLLSQNGTTPRAVGVEFGTHKGNTHNVYAKHEVLLAAGSAVSPTILEYSGIGMKSILEPLGIDTVVDLPVGLNLQDQTTATVRSRITSAGAGQGQAAWFATFNETFGDYSEKAHELLNTKLEQWAEEAVARGGFHNTTALLIQYENYRDWIVNHNVAYSELFLDTAGVASFDVWDLLPFTRGYVHILDKDPYLHHFAYDPQYFLNELDLLGQAAATQLARNISNSGAMQTYFAGETIPGDNLAYDADLSAWTEYIPYHFRPNYHGVGTCSMMPKEMGGVVDNAARVYGVQGLRVIDGSIPPTQMSSHVMTVFYAMALKISDAILEDYASMQ
B2: E316A: RbMPO with active site mutation E316A, generated by site-directed mutagenesis (protein)
chain: MLFWSKRTRKHPGRKRRRLRSEQLESRQLLAADFGGYRHNIYDAEDVNDDGRVSAIDALLVINAMTSETSRDENVFTDVNGDGRRSALDALRVINRIERGDVFPIDTSGDEDLNTLLPEMPSEVRSIDGSGNNPNDHLWGSVGQRLIRMAPAAYGDGISTLAGANRPSAREVSNVLSAMNTSQVLNDRGLSAFVYVWGQFIDHDLGLTESDEHGEAIDISVPEGDLWFDPMGSGEAVIPMTRTPIADGTGTSVGNPAQQFNQITAFIDGSMVYGSDAATAERLRTFAGGRLAISDNGLLPMDESGMVIAGDVRASANVGLTAIQTLFVREHNRLADEIFAADPEATDEEIYQRARLVVASLIQSITYNEFLPALLGQRAMDSYRGYDASVNPGIANEFSTAAFRLGHSTLRDEVGFMSNDGRESKDEMELKDAFFHASMLEETGIDSLLKFDASVQAQEIDLAVVDSLRNFLFGPPGAGGLDLVAMNIQRGRDHGLSDYNTTRQAYGLDRVETFDQITGDVELQQKLASLYGTVDNIDLWVGLMAEDHQHDASVGELTGLIIADQFQRTRDGDRFFYKNVLTDSEVESIERSTLADLIERNTSVDGLQENVFFMQVELRGRVILASSIPPNTMPSEVREEEIRGVSGMAIELIDASGKLVDSTVSDQHGNYRFRALSETGDYQVRLSESGEAMDVLVAHGAERIRGLDFIVLA

Legend:
[1] = tested on: E. coli ATCC 25922; experiment: Microbicidal activity: counting colonies on Petri dishes; assay type: cell-based; settings: 1 h contact with 1.10^6 CFU/mL, 25 mM SCN^−, pH7.4; enzyme alone: wt RbMPO 300 nM or GOxaspniger 25 nM
Method: 10 mL of TSB medium (pH7.4) was inoculated with a freshly obtained colony of E. coli ATCC 25922, and the culture was incubated at 37° C. and 190 rpm overnight. In the morning, 25 mL of TSB medium were inoculated with the previous day's pre-culture to obtain an OD620 nm of 0.07 at TO. When the bacterial culture reached the exponential phase, the bacterial solution was diluted 10-fold in TSB in order to reach 1.10^6 CFU/mL. This dilution was then contacted with the enzyme solution for 1 hour (in a final volume of 1 mL). Further dilutions were then made (10^−1, 10^−4, 10−5, 10^−6). 100 μL of these solutions were spread on a Petri dish containing TSB agar medium and placed at 37° C. overnight. The next day, the surviving colonies were counted and the number of CFU/mL was calculated using the formula below: […]

[2] = Steady-state kinetics by stopped-flow, NaBr (Tau-NHBr formation, 289 nm); assay type: biochemical; settings: 300 nM enzyme, 79 μM H2O2
Method: (§1) pH- and temperature-dependent studies were carried out for each substrate.
(§2) These temperatures were reached by using a stopped-flow coupled to a cryostat.
(§3) For temperature and pH measurements, RbMPO was set at the same concentration as in the determination of steady state kinetics parameters.

[3] = Steady-state kinetics by stopped-flow, NaSCN (hypothiocyanate formation, 240 nm); assay type: biochemical
Method: as §1, §2, §3

[4] = Chlorination activity with APF probe, NaCl range; assay type: biochemical; settings: linear increase of kss, 1 μM RbMPOs, 79 μM H2O2, 10 μM APF
Text: The chlorination activity of myeloperoxidases can be determined using the aminophenyl fluorescein (APF) probe. One can indeed detect the oxidation of APF (non-fluorescent) by HOCl into fluorescein, a fluorescent molecule that is detectable at λex=485 nm and λem=525 nm. According to such test, the fluorescence measured is proportional to the quantity of fluorescein, which itself is proportional to the quantity of HOCl produced by the myeloperoxidase.
Measurements of chlorination activity were herein performed in Corning 384-well clear-bottom (flat-bottom) plates with a reaction volume of 20 μL, in triplicate at 37° C., and in a 50 mM NaPi buffer at pH7.5. […] A 10 to 30 minutes kinetic was performed for each range value and the fluorescence intensity was compared to that of the standard fluorescein range. Thus, the measured fluorescence is proportional to the amount of fluorescein, which in turn is proportional to the amount of HOCl produced by the RbMPOs.
The slopes were measured at the onset of the reaction in order to be in initial velocity. From these values, it was possible to calculate the kss with the following equation: […]
where slopes in FI.pmoles^−1 corresponds to the slope of the fluorescein standard range: 2.95 10^6+1.13 10^5.

[5] = Heme reconstitution of apo wt and mutated RbMPOs (tryptophan fluorescence quenching); assay type: binding; settings: heme reconstitution of apo enzyme; 1 μM enzyme, 50 mM sodium phosphate pH7.5, 25° C.
Method: Sample dilutions were performed in a 50 mM pH7.5 sodium phosphate buffer.

Molecule	surviving bacteria [1]	activity with Br^− (NaBr range), in words [2]	k2 ([3]; NaSCN range, linear increase of kss, 300 nM enzyme, 79 μM H2O2)	substrate specificity ([3]; from steady-state NaSCN, NaBr and NaCl ranges)	k2 [4]	k2 [5]
B1	1,015,000±21,213 CFU/mL					
B2		lack of RbMPO activity	1936+374 M^−1 · s^−1	active only for SCN^−	no catalytic constant could be determined; also recorded: scatter plot	418+34 M−1 · s−1
